This data set can be described thus: yeast display, Sf9 membrane polyspecificity reagent, FACS + sequencing; frameworks hold sequencing errors. The method in brief: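 Nanobodies from a synthetic yeast display library (Saccharomyces cerevisiae BJ5465), induced 36–48 hours with galactose, were stained 1 hour at 4 °C with 10% biotinylated, detergent-solubilized Sf9 membrane reagent, enriched on streptavidin microbeads, then FACS-sorted. Anti-HA (expression) and streptavidin (reagent binding) fluorescence set low and high (top ~1%) gates. Polyreactivity labels come from the gate of origin. Genes were colony-PCR amplified, MiSeq 2 × 250 sequenced and filtered by CDR length.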
“QVQLVESGGGLVQAGGSLRLSCAASGSISGVYAMGWYRQAPGKERELVAAISRSGGSTYYADSVKGRFTISRDNAKNTVYLQMNSLKPEDTAVYYCAAEYTYYSYGGNYDYWGQGTQVSVSS”: the “polyreactivity (PSR sort gate)” value is “low polyreactivity”. Next, “QVQLVESGGGLVQAGGSLRLSCAASGSISGYYVKGWYRQAQGKERELVAAITWRGGSTYYADSVKGRFTISRDNAKNTVYLQMNSLKPEDTAVYYCNKVPGRRSTFEYWGQGTQVTVSS”: “high polyreactivity”.

Take “QVQLVESGGGLVQAGGSLRLSCAASGSISIFYMGWYRQAPGKERELVAAISWSGGRTYYADSVKGRFTISRDNAKNTVYLQMNSLKREDTAVYYCAASRSFPGYGLYYYWGQGTQVTVSS”: the “polyreactivity (PSR sort gate)” value is on record as “low polyreactivity”. Next, “QVQLVESGGGLVQAGGSLRLSCAASGSISKINAMGWYRQAPGKESELGAAINTGDSTYYADSVKGRFTISRDNAKNTVYLQMNSLKPEDTAVYYCAAEGSPTGYDDWGQGTQGTVSS”: “low polyreactivity”; “QVQLVESGGGLVQAGGSLRLSCAASGSISLHYAMGWYRQAPGKERELVAAISKSGGSTYYADSVKGRFTISRDNAKNTVYLQMNSLKPEDTAVYYCAADTYRSFGYNYWGQGTQVTVSS”: “high polyreactivity”. Next, “QVQLVESGGGLVQAGGSLRLSCAASGSISNRNAMGWYRQAPGKERELVAAITYSGGSTYYADSVKGRFTISRDNAKNTVYLQMNSLKPEDTAVYYCAKDHYRFRYDYWGQGTQVTVSS”: “low polyreactivity”; “QVQLVESGGGLVQAGGSLRLSCAASGSISNVYDMGWYRQAPGKERELVATISRTGDSTYYADSVKGRFTISRDNAKNTVYLQMNSLKPEDTAVYYCAARFYWWGLGDDYWGQGTQVTVSS”: “high polyreactivity”; “QVQLVESGGGLVQAGGSLRLSCAASGSISPQNVMGWYRQAPGKERELVAAITGGGYTNYADSVKGRFTISRDNAKKTVYLQMNSLKPEDTAVYYCNADYFQDRLDYWGQGTQVTVSS”: “low polyreactivity”.

For the sequence “QVQLVESGGGLVQAGGSLRLSCAASGSISRVYAMGWYRAAPGKERELVASISRSGGSTYYADSVKGRFTISRDNAKNTVYLQRNSLKPEDTAVYYCAKASKGQYRFDYWGQGTQVTVSS”, the “polyreactivity (PSR sort gate)” value is listed as “low polyreactivity”. With “QVQLVESGGGLVQAGGSLRLSCAASGSISSLNTMGWYRQAPGKERELVASISRRGGSTYYADSVKGRFTISRDNAKNTVYLQINSLKPEDTAVFYCAARGVGGTVPTRYDYWGQGTQVTVSS”, the “polyreactivity (PSR sort gate)” value is “high polyreactivity”. The result for “QVQLVESGGGLVQAGGSLRLSCAASGSISSQNAMVSYRQAPGKERELVAAISWIGGSTYYADSVKGRFTISRDFAKNTVYLQMNSLKPEDTAVYYCAKDRARGFKYYYWGQGTQVTVSS” reads “low polyreactivity”.

“QVQLVESGGGLVQAGGSLRLSCAASGSISSWYAMGWYRQAPGKERELVAAISSGVTTYYADSVKGRFTISRDNAKNTVYLQMHSLKPEDTAVDYCAAKTALYRERGYWGQGTQVTVSS”: the “polyreactivity (PSR sort gate)” value is on record as “low polyreactivity”. “QVQLVESGGGLVQAGGSLRLSCAASGSISSYAMGWYRQAPGKERELVASITWHGGGTYYADSVKGRFTISRDNAKNTVYLQMNSLKPEDTAVYYCNADYVYSWYEPLKYNYWGQGTQVTVSS”: the “polyreactivity (PSR sort gate)” value is listed as “low polyreactivity”. Regarding “QVQLVESGGGLVQAGGSLRLSCAASGSISVNAMVWDRQAPGKERELVAVINRSGGNTYYADSVKGRFTISRDNAKNTVYLQMNSLKPEDTAVYYCAAKWTRSYSRYDYWGQVTQVTVSS”, the “polyreactivity (PSR sort gate)” value is “high polyreactivity”. As to “QVQLVESGGGLVQAGGSLRLSCAASGSISWWYAMGWYRQAPGKERELVAAISSRGGSTYYADSVKGRFTISRDNAKNTVYLQMNSLKPEDTAVYYCAKYYYVGTSFYQGDYWGQGTQVTVSS”, the “polyreactivity (PSR sort gate)” value is on record as “low polyreactivity”. Next, “QVQLVESGGGLVQAGGSLRLSCAASGSISYRYDMGWYRQAPGKERELVATIRSGGSTNYADSVKGRFTISRDNAKNTVYLQMNSMIPEDTAVYYCAARLYARKILHFSADSDYWGQGTQVTVSS”: “low polyreactivity”. On to “QVQLVESGGGLVQAGGSLRLSCAASGSISYRYVMGWYRQAPGKERELVAAITTSGGSTYYADSVKGRFTISRDNAKNTVYLQMNSLKPEDTAVYYCATVYQAAQLRSHYDYWGQGTQVTVSS”, for which the “polyreactivity (PSR sort gate)” value is on record as “high polyreactivity”. The result for “QVQLVESGGGLVQAGGSLRLSCAASGSISYYNAMGWYRQAPGKERELVATITDSGGSTYYADSVKGRFTISRDNAKNTVYLQLNSLKPEDTAVYYCAVDYSEWYSIYDYWGQGTQVTVSS” reads “low polyreactivity”; that for “QVQLVESGGGLVQAGGSLRLSCAASGSIVGYAMGWYRQAPGKERELVAAISSGGSTNYADSVKGRFTISSDNAKNTVYLQMNSLKPVDTAVYYCAARRRYKSGYWGQGTQVTVSS”, “high polyreactivity”.

Turning to “QVQLVESGGGLVQAGGSLRLSCAASGSIVPFYAMGWDRQAPGKERELVATISSGDSTHYADSVKGRFTISRDNAKNTVYLQMNSLKPEDTAVYYCNRRNKAQRFFELGYWGQGTQVTVSS”, the “polyreactivity (PSR sort gate)” value was “low polyreactivity”. In the case of “QVQLVESGGGLVQAGGSLRLSCAASGSIVPYNVMGWYRQAPGKERELVAAITRRGGSTYYADSVKGRFTISRDNAKNTVYLQMNSLKPEDSAVYYCAAVPYPRGKGYDYWGQGTQVTVSS”, the “polyreactivity (PSR sort gate)” value is on record as “high polyreactivity”. In the case of “QVQLVESGGGLVQAGGSLRLSCAASGSIVRYSVGWYRQAPGKERELVAAISIGGTTYYADSVKGRFTISRDNAKNTVYLPMNSLKPEDTAVYYCNVRRRTWHYITSMDYWGQGTQVNVSS”, the “polyreactivity (PSR sort gate)” value is listed as “high polyreactivity”. The result for “QVQLVESGGGLVQAGGSLRLSCAASGSIVSTYAMGWYSQAPGKERELVAAITSTGSMNYADSVKGRFTISRDNAKNTVYLQMNSLKPEDTAVYYCAARYAGPSPTDTGHDYWGQGTQVTVSS” reads “low polyreactivity”; that for “QVQLVESGGGLVQAGGSLRLSCAASGSIVTSNAMGWYRQAPGKERELVAAITSSSSTNYADSVKGRFTISRDNAKNTVYLQMNSLKPEDTAVYYCAADYTWYYPYWIMDYWGQGTQVTVSS”, “low polyreactivity”.

Take “QVQLVESGGGLVQAGGSLRLSCAASGSIVYANTMGRYRQAPGKERELVAAIRSVGRTYYADSVKGRFTISRDNAKNTVYLQMNSLKPADTAVYYCAADPRSYFTSEYWGQGTQVTVSS”: the “polyreactivity (PSR sort gate)” value is on record as “low polyreactivity”. The result for “QVQLVESGGGLVQAGGSLRLSCAASGSIYDSYAMGWYRQAPGKERELVATINTSGGSTYYADSVKGRFTIHDNAKNTVYLQMNSLKPEDTAVYYCNAGRWVYWQNNFGDYGYWGQGTQVTVSS” reads “low polyreactivity”; that for “QVQLVESGGGLVQAGGSLRLSCAASGSIYGDYVMGWYRQAPGKERELVAAINRGGYTYYADSVKGRFTISRDNAKNTVYLQMNSLKPEDTAVYYCAAGYPSWYYGYPYDSWGQGTQVTVSS”, “low polyreactivity”; that for “QVQLVESGGGLVQAGGSLRLSCAASGSIYGLNAMGWYRQAPGKESELVAAITWSGGSSTYYADSVKGRFTISRDNAKNTVYLQMNSLKPVDTAVYYCAAGRVFIPYYFRFYYWGQGTQVSVSS”, “high polyreactivity”. Next, “QVQLVESGGGLVQAGGSLRLSCAASGSIYGPYAMGLYRQAPGKERELVAGITRSVGSTYYADSVKGRFTISRDYAKNTVYLQMNSLKPEDTAVYYCNAKWMYSRWAGYDYWGQGTQVTVSS”: “low polyreactivity”; “QVQLVESGGGLVQAGGSLRLSCAASGSIYGVKAMRWYRQAPGKERELVADITKSTGDTYADSVKGRFTISRDNAKNTVYLQMNSLKPEDTAGYYCNARVTVKQKRLYLYDFWGQGTQVTVSS”: “low polyreactivity”. As to “QVQLVESGGGLVQAGGSLRLSCAASGSIYPNGLGWYRQAPGKERELVATITSGGSTYYADSVKGRFTISRDNAKNTVYLPMHSQKPEDTAVYYCAATVYGGYSGSGSNYWGQGTQVTVSS”, the “polyreactivity (PSR sort gate)” value is “low polyreactivity”. The result for “QVQLVESGGGLVQAGGSLRLSCAASGSIYRQYAMGWSRPAPGKERELVAASRRGTSTYYADSVKGRFTLSRDNAKNTVYLHMNSLKPDDSAVYYCAADTSWYSWWFDYWGQGTQVTVSS” reads “low polyreactivity”; that for “QVQLVESGGGLVQAGGSLRLSCAASGSIYRYYAMGWYRQAPGKETELVAAIRVSTGSTSYADSVKGRFTISRDNAKNTVYLQMNSLKPEDTAFYYCNAGVGYFVGTYYGFLPYDYWGQGTQVTVSS”, “high polyreactivity”; that for “QVQLVESGGGLVQAGGSLRLSCAASGSIYYNAMGWYRQAPGKERELVAAISTSGGTTYYADSVKGRFTISRDNAKNTVYLQMISQKPEDTAVYYCNARPSRRGAFDYWGQGTQVTVSS”, “high polyreactivity”. Consider “QVQLVESGGGLVQAGGSLRLSCAASGSIYYRNAMGSYRQAPGKERELVAAISSTGSTYYADSVKGRFTISRDNAKNTVYLQMNSMKPEDTAVYYCAARQGYRSYRRYDSWGQGTQVTVSS”, for which the “polyreactivity (PSR sort gate)” value is reported as “high polyreactivity”. Next, “QVQLVESGGGLVQAGGSLRLSCAASGSIYYTYAMGWYRPAPGKERELVAAISKRGGSTYYADSVKGRFTISRDNAKNSVYLQMNSLKPEDTAVYYCAARYNAPRGGGSDDYWGQGTQVTVSS”: “high polyreactivity”; “QVQLVESGGGLVQAGGSLRLSCAASGSIYYYTMGWYRQAPGKERELVAAISRSGTRTYYADSVKGRFTISRDNAMYTVYLQMNSLKPEDTAGYYCAARILPPGDNVDDDYWGQGTQVTVSS”: “high polyreactivity”.

For the sequence “QVQLVESGGGLVQAGGSLRLSCAASGSLFFLYAMGWYRQAPGKDRELVAAISRTGSTYADSVKGRFTISRDNAKTTVYLQMNSVKPEDTAVYYCAAEYRYYWYGTMNYWGQCTQVTVSS”, the “polyreactivity (PSR sort gate)” value is “low polyreactivity”.

As for “QVQLVESGGGLVQAGGSLRLSCAASGSLLADNAMGWSRQAPGKERELVAAISRRGGRTYYADSVKGRFTISRDNAKNTVYLQMNSLKPEDTAVYYCAAVGSFHIVDYWGQGTQVTVSS”, the “polyreactivity (PSR sort gate)” value is reported as “high polyreactivity”. Turning to “QVQLVESGGGLVQAGGSLRLSCAASGSNFAKNAMGWYRQAPGKEREMVAAITYSGGSTYYADSVKGRFTISRDNAKNTVYVQMNSLKPEDTAVYYCAADVWWSYYRYDYWGQGTQVTVSS”, the “polyreactivity (PSR sort gate)” value is “low polyreactivity”.

On to “QVQLVESGGGLVQAGGSLRLSCAASGSNFANYAMGWYRQAPGKEREFVAGISGSGGSTFYADSVKGRFTISRDNAKNTVYLQMNSLKPEDTAVYYCAVVQRSKRTYPWYDYWGQGTQVTVSS”, for which the “polyreactivity (PSR sort gate)” value is given as “low polyreactivity”.

The record behind these values is the nanobody polyreactivity screen of Harvey et al. (2022).
